Target: the molecule itself
Test: cryo-EM structure; purified MRS2 at about 0.5 mg/ml in 20 mM HEPES, 150 mM NaCl, 40 mM MgCl2, 0.003% LMNG, pH 7.3; C5 and C1 reconstructions

B1: human MRS2 (Mitochondrial RNA Splicing 2 magnesium channel) (natural protein, UniProt Q9HD23 71-443, looked up)
chain: TSDVSQATLASVAPVFTVTKFDKQGNVTSFERKKTELYQELGLQARDLRFQHVMSITVRNNRIIMRMEYLKAVITPECLLILDYRNLNLEQWLFRELPSQLSGEGQLVTYPLPFEFRAIEALLQYWINTLQGKLSILQPLILETLDALVDPKHSSVDRSKLHILLQNGKSLSELETDIKIFKESILEILDEEELLEELCVSKWSDPQVFEKSSAGIDHAEEMELLLENYYRLADDLSNAARELRVLIDDSQSIIFINLDSHRNVMMRLNLQLTMGTFSLSLFGLMGVAFGMNLESSLEEDHRIFWLITGIMFMGSGLIWRRLLSFLGRQLEAPLPPMMASLPKKTLLADRSMELKNSLRLDGLGSGRSILTNR
notes: MRS2, human, UniProt Q9HD23; The full-length precursor was expressed; No step that removes the tag is described; also called HsMRS2; MRS2-Mg2+
stoichiometry N: 5

Source: paper PMC10632456, “Cryo-EM structures of human magnesium channel MRS2 reveal gating and regulatory mechanisms” (Nature Communications, 2023)
